Biological target: CX1 S ectodomain with stabilizing mutations
Assay: AUC

Chain of peptidase domain (PD) of hACE2 (Q9BYF1 19-615): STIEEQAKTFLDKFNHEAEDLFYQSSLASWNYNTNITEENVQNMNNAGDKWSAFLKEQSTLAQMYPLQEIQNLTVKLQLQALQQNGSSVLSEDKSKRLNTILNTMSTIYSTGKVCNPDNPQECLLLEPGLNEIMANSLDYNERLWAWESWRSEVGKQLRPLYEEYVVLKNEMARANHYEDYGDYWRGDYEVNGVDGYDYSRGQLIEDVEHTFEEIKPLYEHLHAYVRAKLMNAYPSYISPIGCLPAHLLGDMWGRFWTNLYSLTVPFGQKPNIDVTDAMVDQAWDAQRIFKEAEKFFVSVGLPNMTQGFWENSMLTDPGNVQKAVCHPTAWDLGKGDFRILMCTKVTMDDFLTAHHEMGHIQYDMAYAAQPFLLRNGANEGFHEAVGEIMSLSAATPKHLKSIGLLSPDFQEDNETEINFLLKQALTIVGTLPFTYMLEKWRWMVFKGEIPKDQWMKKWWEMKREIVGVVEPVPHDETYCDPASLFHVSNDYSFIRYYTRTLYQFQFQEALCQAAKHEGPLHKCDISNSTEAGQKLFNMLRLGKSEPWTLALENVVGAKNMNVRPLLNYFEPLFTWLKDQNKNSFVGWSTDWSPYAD

peptidase domain (PD) of hACE2 (from UniProt Q9BYF1 19-615) (domain or fragment)
stoichiometry N (hACE2 molecules per S trimer): 2

Reference: paper PMC12363175
